Measured values reported in patent US20220298231A1.
One block for each binder: values may come before it.

How the values were obtained:
Details in all cases: remark: other sources report otherwise
[1] = target: human full-length alpha-synuclein (human), P37840; assay: SPR, mAb captured; alpha-synuclein monomers
[2] = target: alpha-synuclein fibrils (Homo sapiens (Human)), P37840; assay: SPR, mAb captured; alpha-synuclein fibrils
[3] = target: human full-length alpha-synuclein (human), P37840; assay: SPR, mAb captured, steady-state fit
[4] = target: human full-length alpha-synuclein (human), P37840; assay: SPR, 100 nM monomer, relative to chimeric
[5] = target: alpha-synuclein fibrils (Homo sapiens (Human)), P37840; assay: SPR, 450 nM aggregates, relative to chimeric

koff [1]: 0.0226 s⁻¹
B1: ACI-7067-1113D10-Ab1 (antibody, V domains shown)
VH: EVQLVESGGGLVQPKGSLKLSCAASGFTFNTYALHWVRQAPGKGLEWVARIRSKSSNYATYYADSVKDRFTISRDDSQSMLYLQMNNLKTEDTGMYYCVRGGVSPFDYWGQGTTLTVSS
VL: QIVLTQSPAIMSASPGEKVTMTCSASSSVSYMHWYQQKSGTSPKRWIYDTSKLASGVPARFSGSGSGTSYSLTISSMEAEDSATYYCQQWSNNPPTFGGGTKLEIK

koff [2]: < 1e-05 s⁻¹
kon [2]: 9450 M⁻¹ s⁻¹
B2: ACI-7079-2503C6-Ab1 (antibody, V domains shown)
VH: DVQLQESGPGLVKPSQSLSLTCSVTGYSITSGYYWNWIRLFPGNKLEWLGYINYDGSNNFNPSLKNRISITRDTSKNQFFLKLNSVTSEDTATYFCLRGDWDWGQGTLVTVSA
VL: not shown

Kd [3]: 54.5 nM
Relative koff [4]: 1
Relative koff [5]: 1
B3: cACI-7067-1101C8-Ab2 (antibody, V domains shown)
VH: EVQLVESGGGLVQPKGSLKLSCAASGFSFNIYAMNWVRQAPGKGLEWVARIRSKSNNYATYYADSVKDRFTISRADSESMLYLQMNNLKTEDTAMYYCVRVGLRFYAMDYWGQGTSVTVSS
VL: DVLMTQTPLSLPVSLGDQASISCRSSQSIVHSNGNTYLEWYLQKPGQSPKLLIYKVSNRFSGVPDRFSGSGSGTDFTLKISRVEAEDLGVYYCFQGSQGPLTFGAGTKLELK
